# Assay results: patent US20180155425A1 (ZONHON BIOPHARMA INSTITUTE, published 2018)
# B1: ZHB BsAb-3 (bispecific antibody)
# chain: DVQLVQSGAEVKKPGASVKVSCKASGYTFTRYTMHWVRQAPGQGLEWIGYINPSRGYTNYADSVKGRFTITTDKSTSTAYMELSSLRSEDTATYYCARYYDDHYCLDYWGQGTTVTVSSGEGTSTGSGGSGGSGGADDIVLTQSPATLSLSPGERATLSCRASQSVSYMNWYQQKPGKAPKRWIYDTSKVASGVPARFSGSGSGTDYSLTINSLEAEDAATYYCQQWSSNPLTFGGGTKVEIKSGGGGSEVQLVESGAGVKQPGGTLRLTCTASGFSLTTYGVHWVRQAPGKGLEWVGVIWGDGRTDYDAAFMSRVTISKDTSKSTVYLQMNSLRAEDTAVYYCMRNRHDWFDYWGQGTTVTVSSGGGGSGGGGSGGGGSDILLTQSPSSLSATPGERATITCRASQGIRNNLNWYQQKPGQAPRLLIYYSSNLQSGVPSRFSGSGSGTDFTLTISRLQPEDVAAYYCQQSIKLPFTFGSGTKVEIK
# notes: Single-chain tandem scFv; detection on cells used an anti-His-tag antibody; also called anti-CD26×anti-CD3 bispecific antibody
# B2: ZHB BsAb-4 (bispecific antibody)
# chain: DVQLVQSGAEVKKPGASVKVSCKASGYTFTRYTMHWVRQAPGQGLEWIGYINPSRGYTNYADSVKGRFTITTDKSTSTAYMELSSLRSEDTATYYCARYYDDHYCLDYWGQGTTVTVSSGEGTSTGSGGSGGSGGADDIVLTQSPATLSLSPGERATLSCRASQSVSYMNWYQQKPGKAPKRWIYDTSKVASGVPARFSGSGSGTDYSLTINSLEAEDAATYYCQQWSSNPLTFGGGTKVEIKSGGGGSDILLTQSPSSLSATPGERATITCRASQGIRNNLNWYQQKPGQAPRLLIYYSSNLQSGVPSRFSGSGSGTDFTLTISRLQPEDVAAYYCQQSIKLPFTFGSGTKVEIKGGGGSGGGGSGGGGSEVQLVESGAGVKQPGGTLRLTCTASGFSLTTYGVHWVRQAPGKGLEWVGVIWGDGRTDYDAAFMSRVTISKDTSKSTVYLQMNSLRAEDTAVYYCMRNRHDWFDYWGQGTTVTVSS
# notes: as for B1
# B3: ZHB BsAb-2 (bispecific antibody)
# chain: DILLTQSPSSLSATPGERATITCRASQGIRNNLNWYQQKPGQAPRLLIYYSSNLQSGVPSRFSGSGSGTDFTLTISRLQPEDVAAYYCQQSIKLPFTFGSGTKVEIKGGGGSGGGGSGGGGSEVQLVESGAGVKQPGGTLRLTCTASGFSLTTYGVHWVRQAPGKGLEWVGVIWGDGRTDYDAAFMSRVTISKDTSKSTVYLQMNSLRAEDTAVYYCMRNRHDWFDYWGQGTTVTVSSGGGGSDVQLVQSGAEVKKPGASVKVSCKASGYTFTRYTMHWVRQAPGQGLEWIGYINPSRGYTNYADSVKGRFTITTDKSTSTAYMELSSLRSEDTATYYCARYYDDHYCLDYWGQGTTVTVSSGEGTSTGSGGSGGSGGADDIVLTQSPATLSLSPGERATLSCRASQSVSYMNWYQQKPGKAPKRWIYDTSKVASGVPARFSGSGSGTDYSLTINSLEAEDAATYYCQQWSSNPLTFGGGTKVEIK
# notes: as for B1
# B4: ZHB BsAb-1 (bispecific antibody)
# chain: EVQLVESGAGVKQPGGTLRLTCTASGFSLTTYGVHWVRQAPGKGLEWVGVIWGDGRTDYDAAFMSRVTISKDTSKSTVYLQMNSLRAEDTAVYYCMRNRHDWFDYWGQGTTVTVSSGGGGSGGGGSGGGGSDILLTQSPSSLSATPGERATITCRASQGIRNNLNWYQQKPGQAPRLLIYYSSNLQSGVPSRFSGSGSGTDFTLTISRLQPEDVAAYYCQQSIKLPFTFGSGTKVEIKSGGGGSDVQLVQSGAEVKKPGASVKVSCKASGYTFTRYTMHWVRQAPGQGLEWIGYINPSRGYTNYADSVKGRFTITTDKSTSTAYMELSSLRSEDTATYYCARYYDDHYCLDYWGQGTTVTVSSGEGTSTGSGGSGGSGGADDIVLTQSPATLSLSPGERATLSCRASQSVSYMNWYQQKPGKAPKRWIYDTSKVASGVPARFSGSGSGTDYSLTINSLEAEDAATYYCQQWSSNPLTFGGGTKVEIK
# notes: detection on cells used an anti-His-tag antibody; also called anti-CD26×anti-CD3 bispecific antibody
# B5: anti-CD26-scFv (scFv)
# scFv: EVQLVESGAGVKQPGGTLRLTCTASGFSLTTYGVHWVRQAPGKGLEWVGVIWGDGRTDYDAAFMSRVTISKDTSKSTVYLQMNSLRAEDTAVYYCMRNRHDWFDYWGQGTTVTVSSGGGGSGGGGSGGGGSDILLTQSPSSLSATPGERATITCRASQGIRNNLNWYQQKPGQAPRLLIYYSSNLQSGVPSRFSGSGSGTDFTLTISRLQPEDVAAYYCQQSIKLPFTFGSGTKVEIKHHHHHH
# notes: Expressed in Pichia pastoris; also called anti-CD26 single-chain antibody; parent single-chain antibody
# Biological target: T1, human CD26 on the surfaces of tumor cells (human, UniProt P27487 1-766)
# T1 construct: whole, on cells; The background section says CD26 often exists as a homodimer of 766-residue monomers; also called CD26 molecules on the surfaces of the tumor cells
# Test: flow cytometry on Caki-1 cells, anti-His-tag-Alexa Fluor 488 detection
row,Binder,Binding rate
1,B1,1.2%
2,B2,1.1%
3,B3,49.9%
4,B4,1.1%

# Biological target: T1, human CD26 on the surfaces of tumor …
# Test: flow cytometry on PC-3 cells, anti-His-tag-Alexa Fluor 488 detection
row,Binder,Binding rate
1,B1,0.1%
2,B2,62.9%
3,B3,42.8%
4,B4,1.2%

# Biological target: T2, human CD3 on the surfaces of Jurkat cells / T cells (human, UniProt P07766 23-207; P09693 23-182; P04234 22-171)
# T2 construct: whole, on cells; CD3 is endogenous on Jurkat cells and on enriched human T cells; also called CD3 molecules on the surfaces of Jurkat cells
# Test: flow cytometry on Jurkat (CD3+) cells, antibody at 10 µg/mL, anti-His-tag-Alexa Fluor 488 detection
# Procedure: Test method: Jurkat cells in the logarithmic growth phase were harvested by centrifugation at 1000 rpm for 5 min, and washed twice with PBS buffer. One portion of 1.0×10⁶ cells was re-suspended in 250 μL PBS buffer, and BsAb1, BsAb2, BsAb3, and BsAb4 were respectively added to give a final concentration of 10 μg/mL and incubated at room temperature for 1 hour. After incubation, the cells were washed twice with PBS, and then 250 μL of Anti-His-tag-Alexa Fluor 488 antibody that was 1:2000 diluted was added and incubated at room temperature for 1 hour. After incubation, the cells were washed thrice with PBS buffer, re-suspended in 300 μL PBS, and detected by flow cytometer.
row,Binder,binding rate to Jurkat cells
1,B1,0.2%
2,B2,56.5%
3,B3,92%
4,B4,0.1%

# Biological target: T1, human CD26 on the surfaces of tumor …
# Test: flow cytometry on NCI-H2452 cells, anti-His-tag-Alexa Fluor 488 detection
# Procedure: (§1) Test method: 786-0 and NCI-H2452 cells in the logarithmic growth phase were trypsinized. The cells were harvested by centrifugation at 1000 rpm for 5 min, and washed twice with PBS buffer. One portion of 1.0×10⁶ cells was re-suspended in 250 μL PBS butler, and BsAb1, BsAb2, BsAb3, and BsAb4 were respectively added to give a final concentration of […] and incubated at room temperature for 1 hr. After incubation, the cells were washed twice with PBS buffer, and then 250 μL of Anti--His-tag-Alexa Fluor 488 antibody that was 1:2000 diluted was added and incubated at room temperature for 1 hr. After incubation, the cells were washed thrice with PBS, re-suspended in 300 μL PBS buffer, and detected by flow cytometer.
row,Binder,Binding rate
1,B1,0.7%
2,B2,1.4%
3,B3,71.8%
4,B4,1.1%

# Biological target: T1, human CD26 on the surfaces of tumor …
# Test: cell-based or functional assay
Binder,"Lysis rate (%) of 786-0 cells by T cells, antibody at 10^2 pg/mL","Lysis rate (%) of 786-0 cells by T cells, antibody at 10^3 pg/mL","Lysis rate (%) of 786-0 cells by T cells, antibody at 10^4 pg/mL","Lysis rate (%) of 786-0 cells by T cells, antibody at 10^5 pg/mL"
B5,10.8%,9.6%,10.9%,7.5%
B2,24.3%,38.8%,64.8%,75.4%
B3,21.8%,59.2%,69.6%,76.3%

# Biological target: T1, human CD26 on the surfaces of tumor …
# Test: cell-based or functional assay
# Remark: another data set of the same source
row,Binder,IC50 of T cell-mediated killing of 786-0 cells
1,B2,3.1 ng/mL
2,B3,1.39 ng/mL

# Biological target: T3, CD26 protein (UniProt P27487 39-766, limits assumed)
# T3 construct: Soluble CD26 protein in the biolayer interferometry assay on AR2G sensors
# Test: BLI, Fortebio Qke, AR2G amine reactive biosensor
# From the text: Test method: The affinities of the bispecific antibodies to CD26 protein were detected by using the Molecular Interaction Instrument Fortebio Qke, following the instruction of operation of immersive readable Amine Reactive 2nd Generation Biosensor (Fortebio, AR2G).
row,Binder,Kd
1,B1,10 nM
2,B5,1 nM
3,B2,1.97 nM
4,B3,3.44 nM
5,B4,9.29 nM

# Biological target: T1, human CD26 on the surfaces of tumor …
# Test: cell-based or functional assay
# Remark: another data set of the same source
Binder,"Lysis rate (%) of COLO205 cells by PBMC, antibody at 10 ng/mL","Lysis rate (%) of Caki-1 cells by PBMC, antibody at 10 ng/mL","Lysis rate (%) of NCI-H2452 cells by PBMC, antibody at 10 ng/mL","Lysis rate (%) of PC-3 cells by PBMC, antibody at 10 ng/mL"
B1,5.3%,0.8%,0.7%,1.7%
B2,5.4%,0.9%,0.5%,53.1%
B3,17%,26.5%,32.3%,39.6%
B4,1.7%,0.3%,0.2%,45.4%

# Biological target: T1, human CD26 on the surfaces of tumor …
# Test: flow cytometry on 786-0 cells, anti-His-tag-Alexa Fluor 488 detection
# Procedure: as §1
row,Binder,Binding rate
1,B1,9.4%
2,B2,98%
3,B3,99.6%
4,B4,41.1%

# Biological target: T1, human CD26 on the surfaces of tumor …
# Test: flow cytometry on COLO205 cells, anti-His-tag-Alexa Fluor 488 detection
row,Binder,Binding rate
1,B1,0.4%
2,B2,0.2%
3,B3,14%
4,B4,0.1%

# Biological target: T1, human CD26 on the surfaces of tumor …
# Test: cell-based or functional assay
# Remark: another data set of the same source
row,Binder,"Lysis (%) of 786-0 cells by PBMC, antibody at 10 ng/mL"
1,B1,4.3%
2,B5,4.1%
3,B2,25.5%
4,B3,27.4%
5,B4,15.9%
